Patent US20250152717A1 (published 2025)

Target: T1, KRAS G12V (same sequence in NRAS and HRAS G12V) peptide on HLA-A*11:01 (human)
T1 peptide: VVGAVGVGK
Assay: stated without data

binding result: recognises
B1: TCR 11N6 (TCR, V domains shown)
Valpha: QQGEEDPQALSIQEGENATMNCSYKTSINNLQWYRQNSGRGLVHLILIRSNEREKHSGRLRVTLDTSKKSSSLLITASRAADTASYFCATDPMNTNAGKSTFGDGTTLTVKP
Vbeta: GVAQSPRYKIIEKRQSVAFWCNPISGHATLYWYQQILGQGPKLLIQFQNNGVVDDSQLPKDRFSAERLKGVDSTLKIQPAKLEDSAVYLCASSPYGGSVSYEQYFGPGTRLTVT
